Experimental data from the domain aggregation screens of Martell et al. (2025).

Test: soluble fraction after stress (log2 fold change); higher = more stays soluble; pooled small domains, quantitative proteomics
Settings: stress: pH 4
Method in brief: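 Custom libraries of small protein domains were pooled and measured with high-throughput quantitative proteomics after pH 4 stress. The read-out is the fold change in the amount of each domain that stays soluble after the acid stress, taken as a measure of aggregation propensity. Fold changes are on a log2 scale, and higher values mean more of the domain stayed soluble.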

Row | Sequence | soluble fraction (log2)
1 | HMSVPEAAERAIDVAQMRRALGELSPEQQRVLELAYFGGLTRQEIARATGTPLGTVHTRARLGLQNLRARL | -0.0378
2 | HMSVPRVWTDIQGRRVKGDFEGLRGDLVVLRVGGKSYAFPLVRLIASDQAYARSLVAGNPSK | 0.22
3 | HMSVPSLVGKTDSEAQSAIKSAGLKVGTVTYQYSDETEKGYVVSQSPYSGNKVNAGSTVNIVVSKGK | 0.155
4 | HMSVPSVAAVREQTGLSQVKFASLLGVSVRTLQEWEQGRRAPSGAARTLLMVAAKNPQALLEV | -0.0956
5 | HMSVSVEEDADGRVWVYYQDQKMDITDLFDENGVYGFNLEKGDRTVYVEVTKNADGTYSFTQTD | -1.34
6 | HMSVTIENQINTYFQTRDKISRDELVALIKKDFANWTDNTINIYVSSLQKRGIIHSLSRGMYALGN | 0.22
7 | HMSVTYRLLITSSPGQAEVFLDGKRVGITPFSARLAAGWYQVRVSKEGYNLWEQHVQLREDQRLTATLT | 0.229
8 | HMSWAAQVVDKMTNDQLIKSLNEIVNTGKQLGLDITVEQNGDKNFIMTVKDSKGNVQLVTPIG | -0.937
9 | HMSWEQELIEKANEIIDLYPEKRSALGPLLYLAQERDGYISDESIVEISNLVGITEVQVKSVASFYSMYK | -2.88
10 | HMSWNIHEAVEYYKGQDAPQNQFALVELLKEVQEHNGGVLTDIAVEEIAALLNTKVTFLNAVIKRYPSLK | -0.163
11 | HMSYEDLIQAVSGHFGIEIRALLSEDRKKENMIPRQVAMYLLKNKLHYTYERIGNIFSGRNHTAVMYSV | -0.403
12 | HMSYGKVQFVIDAKDAVLSIDGKETDYEKPVKLTYGSHTITVYSSDYDTWKRNLYVNSEKSTVVINLA | -0.0156
13 | HMSYKDIKEASDTGTYRDEENNIDVKWQKLFNGHNEYFDIEAYRDGERVEINNQQADRYIYLIKQEMD | -0.357
14 | HMSYPEIFQSLTEREQKIADMIAEHLSNKEIAEKMFLSEGTIKQYINQIYSKLQITGDIRNKRKQLIELFH | -0.0222
15 | HMSYTPGQWVEASMPNATFFRIVPSGNATADKMLAVATPMKVISTSGTYVKVELDSGDVGFVPEIMV | 0.102
16 | HMTAEASELRERIRAAMATLPPAQQRVIELAYFEGLTQREIAALLNEPLGTIKTRMRLGMRKLKDVL | 0.367
17 | HMTAIKAGDLVKITGTKYYGGQTIPGWVKNQNWYVQEVSGDRAVINKNESGTNAIMSPIRVSDLTPVS | -0.0468
18 | HMTALPPNVSIDSDERRLLEAIGFDPVDMDVLARDGQFSSVDLFRLLVSLELKGLVENQHGAYQRL | -1.67
19 | HMTALSAREHEVLQLITRGYTADEIAAMLQISRHTALTYVRRIYSKLKVNSKAEAIFEVRQR | -0.215
20 | HMTANPHKPEPLQIDTSDITPGVTVIHKAFGNGTVVSVDNNRILIDFDGIEKKFPFPGAFLYGFLQK | -1.17
21 | HMTAPDDFIRAEVTASGKNGMAVAELSKRVRTRFKSFKVRELGYPHLAGYLADVEGVRVYKQGRENWVAK | -0.241
22 | HMTAQASDIEKVLQVIETLGFRGHTLPGENRTAIGVTGNRGSIDPAHFENLPGVADAIRVTKPY | -0.292
23 | HMTARPTLEKLKYMIHEAGITENSLKVIVATKGHYGLDADISTYSDDFITRWIIPNWTKIVQTISNNK | 0.0354
24 | HMTASSYMGMQLGRLEELLKKEVLSLSEKTELKDLISDFDKIPEVVSPKIIGRYLQLKNQHFAKINA | -0.2
25 | HMTAVVPNFKGKLISELSNFVADKNVRYTIIDSIYDPEEKSGIVIKQDPEEKTQVKHNRIIYLYVTST | -1.11

Row | Sequence | soluble fraction (log2)
26 | HMTDDFAGRFNELLIHNQETAVTAATRLEVSPAVITKWRQGKSIPSGEYIKRIVETYHVSADYLLGVIDTP | -0.0517
27 | HMTDEEFSRIVKYTAVRYGINLYHKKVMVEGRLSNYLAANGFKSYTEYMDRVEADYTGQEAQNLINILTT | -1.3
28 | HMTDFDPDGREKLIKVQKALHFNNHQLADALRVGQATFSSYIYGRVAAGVPVRVVKAAEDLLKNSKATV | 0.146
29 | HMTDFDWSLFTQQLKRFNLFLSYDDREKLQTFQTLYGLNELDLAEYVAKASAGEKNGLNFNYLRQLINKEK | -1.08
30 | HMTDFNTFSDAIIAAVGSRASGLKVVDNAVSVMVDVSGLNEDQRVEIEADVRAAAEHAGAQSVRIMLT | -0.5
31 | HMTDLALHIGKTLRELRQRRGWSLDKTAQATGVSKAMLGQIERGESSPTVVTLWRISSGLQASFSEFLPP | 0.0792
32 | HMTDLDVAVTMTVALEEAVNGATRRVRLPNGKELNVKIPAGVAAGQQIRLKGQGETAPGHRPGDVLITVNI | -0.626
33 | HMTDLQNDIQAFNLKKMSYQHETKKLEEKRNPEKLEKLEQDIQALYLRIMENPNMRAFDSAKQALYLQIM | -1.55
34 | HMTDLVVGLAGITLEPLRPAGKAEFNGSVVDVVSLGDYIEKSTAIQIVEIEGNRIVVHHGED | -1.09
35 | HMTDQYEVQNLVGLTVREAQEKEGVKDIFEVREVGSEFSAEYDAGLIVRQSPDAGEQRKGEGLVIEVWVSA | -0.409
36 | HMTDSLELADLLRRAIITGEYKPRERLVEMELAQKYSVSRTPVREALKHLEALGLVKMERYKGAMVAD | -0.573
37 | HMTDSQLVEAENHVALRQAMAHLGPRERELIGLYYFEEQSQTQIAARFGVSQMQVSRWLTSAVGRIRGQMA | 0.131
38 | HMTDWNTVEKETLSAIQKVLSGQASWIDLSPADHSIRHMQHEMVQQAGLISQSYGKEPMRRIRIYQNP | -0.036
39 | HMTEDADIERRLTGILASAGWYRSLAVEVKEGIVYLDGATASGNHRDWAGSLAAKTEGVVAVVNRIEVQP | -0.285
40 | HMTEDIAVRILEFLEDNNGFYALNDKTPSEKIHDLFGVSKKKFKIALGGLYKQRLITVSDAGVTLVK | -0.404
41 | HMTEDTPIIVERVVADIDENVVAIVRKFKDAFKSITAQREIKKKLRSILWVNYQIKDQEVFDKAYQYIEMY | -0.784
42 | HMTEEDVVIFSGLSDRDLKMVQTELANSGIKYTLPTSGTVSVPNSEIARAQMVLAMAGIPRS | -0.0859
43 | HMTEEVIIQNYIGKNFNDVRDELEAKGITVDEPNMKYSDEFKENTIMAQSIKPGQPLKPGGFNSIKFDVS | 0.147
44 | HMTEFFNMQDMFYFKLTGDVTSKERRQSLGKILGIGYGNAAQMVSRLNNYGITKEEFTNAINEIEKQMEAG | -0.511
45 | HMTEISGIEKFLASGAINGIGPAMAKKIVAEFGEKTLEIIAKSPNELLKVPGIGKKTAEKISTSYLEQ | 0.0637
46 | HMTEKEEERTEDLNYYRLNLISMLKSSYPEYLDDEEFISNRSQEAAEAFEDAVRSGSNYLDASAESNRTLY | -0.717
47 | HMTEKIRLTVDEAGKNQRVDKYISTLLTQFSRSSIKTWIETGNILLDNTRTKPRTLLSPGQVIDIQPRFED | -0.144
48 | HMTEKIVFNIDGQTGRIDKILADFMTGTSRSQIQAWVKDGNLMVNDKAVKSNYKVQDGDLLELTIPEPEQ | -0.378
49 | HMTELIEDYVELIGDLIRHRGEARAADIANRMAVSQATVSKMIRRLNELGLVTSKPYRSLFLTDEGQKMAE | -0.469
50 | HMTELLTPKQRQVFELALREGYYDVPRRTSITEMARLLGVAKSTLSAQMHRMEATVMSTFAEEIRKQ | 0.0506
